Measurements reported in patent US20250101122A1 (KELONIA THERAPEUTICS, published 2025).

T1: recombinant, phycoerythrin (PE) labeled, BCMA extracellular domain-FC fusion protein (BCMA-PE) (Homo sapiens (Human), UniProt Q02223 1-54, phycoerythrin (PE) label, site not stated)
T1 construct: Staining reagent; not shown: Fc part
T1 sequence: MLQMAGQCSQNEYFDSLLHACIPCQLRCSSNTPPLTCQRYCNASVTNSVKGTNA


Molecular target: T1, recombinant, phycoerythrin (PE) …
Assay: flow cytometry; transduced PBMCs stained with PE-labelled BCMA extracellular domain-Fc (BCMA-PE)
Protocol: 5×10⁵ human PBMCs were plated in each well of a 24-well plate. Cells were transduced with recombinant lentiviruses LV 1 to LV 19 at a MOI 2 based on the Jurkat functional titer, or a 0.5 mL volumetric transduction if MOI 2 was not achievable. Seven days post-transduction, PBMCs were harvested and stained with BCMA-PE and analyzed by flow cytometry to assess the percentage of anti-BCMA CAR expressing cells. FIG. 2B.

Binder | binding result
anti-BCMA CAR of recombinant lentivirus LV 1 (SEQ ID NO: 189) (other, Chimeric antigen receptor on the surface of transduced cells; CD8α hinge and TM, CD137 costimulatory domain, CD3ζ) EIVLTQSPATLSLSPGERATLSCRASQSVSSYLAWYQQKPGQAPRLLIYDASNRATGIPARFSGSGSGTDFTLTISSLEPEDFAVYYCQQRVVYPITFGGGTKVEIKGGGGSGGGGSGGGGSGGGGSQITLKESGPTLVKPTQTLTLTCTFSGFSLSTSGVGVGWIRQPPGKALEWLALIYWNDEKRYSPSLKSRLTITKDTSKNQVVLTMTNMDPVDTAVYYCARDEYGGFDIWGQGTMVTVSSTTTPAPRPPTPAPTIASQPLSLRPEACRPAAGGAVHTRGLDFACDIYIWAPLAGTCGVLLLSLVITLYCKRGRKKLLYIFKQPFMRPVQTTQEEDGCSCRFPEEEEGGCELRVKFSRSADAPAYQQGQNQLYNELNLGRREEYDVLDKRRGRDPEMGGKPRRKNPQEGLYNELQKDKMAEAYSEIGMKGERRRGKGHDGLYQGLSTATKDTYDALHMQALPPR | binds
anti-BCMA CAR of recombinant lentivirus LV 2 (SEQ ID NO: 237) (other, Chimeric antigen receptor on the surface of transduced cells; CD8α hinge and TM, CD137, CD3ζ) EIVLTQSPATLSLSPGERATLSCRASQSVSSYLAWYQQKPGQAPRLLIYDASNRATGIPARFSGSGSGTDFTLTISSLEPEDFAVYYCQQRFDYPITFGGGTKVEIKGGGGSGGGGSGGGGSGGGGSQITLKESGPTLVKPTQTLTLTCTFSGFSLSTSGVGVGWIRQPPGKALEWLALIYWNDDKRYSPSLKSRLTITKDTSKNQVVLTMTNMDPVDTAVYYCARDEYGGFDIWGQGTMVTVSSTTTPAPRPPTPAPTIASQPLSLRPEACRPAAGGAVHTRGLDFACDIYIWAPLAGTCGVLLLSLVITLYCKRGRKKLLYIFKQPFMRPVQTTQEEDGCSCRFPEEEEGGCELRVKFSRSADAPAYQQGQNQLYNELNLGRREEYDVLDKRRGRDPEMGGKPRRKNPQEGLYNELQKDKMAEAYSEIGMKGERRRGKGHDGLYQGLSTATKDTYDALHMQALPPR | binds
anti-BCMA CAR of recombinant lentivirus LV 10 (SEQ ID NO: 621) (other, Chimeric antigen receptor on the surface of transduced cells; CD8α hinge and TM, CD137, CD3ζ) EVQLLESGGGLVQPGGSLRLSCAASGFTFESEAMSWYRQAPGKERELVSVITSEGSTYYADSVKGRFTISRDNSKNTLYLQMNSLRAEDTAVYYCAHIEWETRLNWGQGTQVTVSSTTTPAPRPPTPAPTIASQPLSLRPEACRPAAGGAVHTRGLDFACDIYIWAPLAGTCGVLLLSLVITLYCKRGRKKLLYIFKQPFMRPVQTTQEEDGCSCRFPEEEEGGCELRVKFSRSADAPAYQQGQNQLYNELNLGRREEYDVLDKRRGRDPEMGGKPRRKNPQEGLYNELQKDKMAEAYSEIGMKGERRRGKGHDGLYQGLSTATKDTYDALHMQALPPR | binds
anti-BCMA CAR of recombinant lentivirus LV 11 (SEQ ID NO: 645) (other, Chimeric antigen receptor on the surface of transduced cells; CD8α hinge and TM, CD137, CD3ζ) EVQLLESGGGLVQPGGSLRLSCAASGFTFDEYTMHWFRQAPGKEREFVSAISGGGSETYYADSVKGRFTISRDNSKNTLYLQMNSLRAEDTAVYYCAAGGEEAGVGYWGQGTQVTVSSTTTPAPRPPTPAPTIASQPLSLRPEACRPAAGGAVHTRGLDFACDIYIWAPLAGTCGVLLLSLVITLYCKRGRKKLLYIFKQPFMRPVQTTQEEDGCSCRFPEEEEGGCELRVKFSRSADAPAYQQGQNQLYNELNLGRREEYDVLDKRRGRDPEMGGKPRRKNPQEGLYNELQKDKMAEAYSEIGMKGERRRGKGHDGLYQGLSTATKDTYDALHMQALPPR | binds
anti-BCMA CAR of recombinant lentivirus LV 12 (SEQ ID NO: 669) (other, Chimeric antigen receptor on the surface of transduced cells; CD8α hinge and TM, CD137, CD3ζ) EVQLLESGGGLVQPGGSLRLSCAASGFTFEDYAMSWFRQAPGKEREGVSAISGKGGSTYYADSVKGRFTISRDNSKNTLYLQMNSLRAEDTAVYYCAVLDEEAGAEGGYWGQGTQVTVSSTTTPAPRPPTPAPTIASQPLSLRPEACRPAAGGAVHTRGLDFACDIYIWAPLAGTCGVLLLSLVITLYCKRGRKKLLYIFKQPFMRPVQTTQEEDGCSCRFPEEEEGGCELRVKFSRSADAPAYQQGQNQLYNELNLGRREEYDVLDKRRGRDPEMGGKPRRKNPQEGLYNELQKDKMAEAYSEIGMKGERRRGKGHDGLYQGLSTATKDTYDALHMQALPPR | binds
anti-BCMA CAR of recombinant lentivirus LV 13 (SEQ ID NO: 693) (other, Chimeric antigen receptor on the surface of transduced cells; CD8α hinge and TM, CD137, CD3ζ) EVQLLESGGGLVQPGGSLRLSCAASGFTFDRYAMSWFRQAPGKEREGVSAISTSGDSTYYADSVKGRFTISRDNSKNTLYLQMNSLRAEDTAVYYCAVLDEEAGAEGGYWGQGTQVTVSSTTTPAPRPPTPAPTIASQPLSLRPEACRPAAGGAVHTRGLDFACDIYIWAPLAGTCGVLLLSLVITLYCKRGRKKLLYIFKQPFMRPVQTTQEEDGCSCRFPEEEEGGCELRVKFSRSADAPAYQQGQNQLYNELNLGRREEYDVLDKRRGRDPEMGGKPRRKNPQEGLYNELQKDKMAEAYSEIGMKGERRRGKGHDGLYQGLSTATKDTYDALHMQALPPR | binds
anti-BCMA CAR of recombinant lentivirus LV 15 (SEQ ID NO: 741) (other, Chimeric antigen receptor on the surface of transduced cells; CD8α hinge and TM, CD137, CD3ζ) EVQLLESGGGLVQPGGSLRLSCAASGFTFDSYTMSWYRQAPGKERELVSAISGHGDSTYYADSVKGRFTISRDNSKNTLYLQMNSLRAEDTAVYYCTRISITTEWLAGDYWGQGTQVTVSSTTTPAPRPPTPAPTIASQPLSLRPEACRPAAGGAVHTRGLDFACDIYIWAPLAGTCGVLLLSLVITLYCKRGRKKLLYIFKQPFMRPVQTTQEEDGCSCRFPEEEEGGCELRVKFSRSADAPAYQQGQNQLYNELNLGRREEYDVLDKRRGRDPEMGGKPRRKNPQEGLYNELQKDKMAEAYSEIGMKGERRRGKGHDGLYQGLSTATKDTYDALHMQALPPR | binds
anti-BCMA CAR of recombinant lentivirus LV 18 (SEQ ID NO: 837) (other, Chimeric antigen receptor on the surface of transduced cells; CD8α hinge and TM, CD137, CD3ζ) EVQLLESGGGLVQPGGSLRLSCAASGFTFSSEGMSWVRQAPGKERELVSAISGSGDHTYYADSVRGRFTISRDNSKNTLYLQMNSLRAEDTAVYYCNALEGGPTTAIQPGGPDYWGQGTQVTVSSTTTPAPRPPTPAPTIASQPLSLRPEACRPAAGGAVHTRGLDFACDIYIWAPLAGTCGVLLLSLVITLYCKRGRKKLLYIFKQPFMRPVQTTQEEDGCSCRFPEEEEGGCELRVKFSRSADAPAYQQGQNQLYNELNLGRREEYDVLDKRRGRDPEMGGKPRRKNPQEGLYNELQKDKMAEAYSEIGMKGERRRGKGHDGLYQGLSTATKDTYDALHMQALPPR | binds
anti-BCMA CAR of recombinant lentivirus LV 3 (SEQ ID NO: 261) (other, Chimeric antigen receptor on the surface of transduced cells; CD8α hinge and TM, CD137, CD3ζ) QVQLVESGGGVVQPGRSLRLSCAASGFTFSSYGMHWVRQAPGKGLEWVAVISYEGSNKYYADSVKGRFTISRDNSKNTLYLQMNSLRAEDTAVYYCARELGDGMDVWGQGTTVTVSSGGGGSGGGGSGGGGSGGGGSEIVLTQSPATLSLSPGERATLSCRASQSVSSYLAWFQQKPGQAPRLLIYDASNRATGIPARFSGSGSGTDFTLTISSLEPEDFAVYYCQQRVDLWTFGGGTKVEIKTTTPAPRPPTPAPTIASQPLSLRPEACRPAAGGAVHTRGLDFACDIYIWAPLAGTCGVLLLSLVITLYCKRGRKKLLYIFKQPFMRPVQTTQEEDGCSCRFPEEEEGGCELRVKFSRSADAPAYQQGQNQLYNELNLGRREEYDVLDKRRGRDPEMGGKPRRKNPQEGLYNELQKDKMAEAYSEIGMKGERRRGKGHDGLYQGLSTATKDTYDALHMQALPPR | binds
anti-BCMA CAR of recombinant lentivirus LV 5 (SEQ ID NO: 357) (other, Chimeric antigen receptor on the surface of transduced cells; CD8α hinge and TM, CD137, CD3ζ) QVQLVESGGGLVKPGGSLRLSCAASGFTFSDYYMSWIRQAPGKGLEWVSYISSSGSTIYYADSVKGRFTISRDNAKNSLYLQMNSLRAEDTAVYYCARDQGNYGVDVWGQGTTVTVSSGGGGSGGGGSGGGGSGGGGSDIQMTQSPSTLSASVGDRVTITCRASQSISSWLAWYQQKPGKAPKLLIYEASSLESGVPSRFSGSGSGTEFTLTISSLQPDDFATYYCQQSDSHPITFGGGTKVEIKTTTPAPRPPTPAPTIASQPLSLRPEACRPAAGGAVHTRGLDFACDIYIWAPLAGTCGVLLLSLVITLYCKRGRKKLLYIFKQPFMRPVQTTQEEDGCSCRFPEEEEGGCELRVKFSRSADAPAYQQGQNQLYNELNLGRREEYDVLDKRRGRDPEMGGKPRRKNPQEGLYNELQKDKMAEAYSEIGMKGERRRGKGHDGLYQGLSTATKDTYDALHMQALPPR | binds
anti-BCMA CAR of recombinant lentivirus LV 7 (SEQ ID NO: 477) (other, Chimeric antigen receptor on the surface of transduced cells; CD8α hinge and TM, CD137, CD3ζ) DIQMTQSPSSLSASVGDRVTITCRASQSISSYLNWYQQKPGKAPKLLIYAASSLQSGVPSRFSGSGSGTDFTLTISSLQPEDFATYYCQQAHSSPITFGGGTKVEIKGGGGSGGGGSGGGGSGGGGSEVQLLESGGGLVQPGGSLRLSCAASGFTFSNYAMSWVRQAPGKGLEWVSAISGSGGSTYYADSVKGRFTISRDNSKNTLYLQMNSLRAEDTAVYYCARPGDGYYEGVYFDYWGQGTLVTVSSTTTPAPRPPTPAPTIASQPLSLRPEACRPAAGGAVHTRGLDFACDIYIWAPLAGTCGVLLLSLVITLYCKRGRKKLLYIFKQPFMRPVQTTQEEDGCSCRFPEEEEGGCELRVKFSRSADAPAYQQGQNQLYNELNLGRREEYDVLDKRRGRDPEMGGKPRRKNPQEGLYNELQKDKMAEAYSEIGMKGERRRGKGHDGLYQGLSTATKDTYDALHMQALPPR | binds
anti-BCMA CAR of recombinant lentivirus LV 8 (SEQ ID NO: 525) (other, Chimeric antigen receptor on the surface of transduced cells; CD8α hinge and TM, CD137, CD3ζ) DIQMTQSPSSLSASVGDRVTITCQASQDIANYLNWYQQKPGKAPKLLIYDASNLETGVPSRFSGSGSGTDFTFTISSLQPEDIATYYCQQHFNLPLTFGGGTKVEIKGGGGSGGGGSGGGGSGGGGSQITLKESGPTLVKPTQTLTLTCTFSGFSLSTSGVGVGWIRQPPGKALEWLALIYWNDEKRYSPSLKSRLTITKDTSKNQVVLTMTNMDPVDTAVYYCAREGSHDYKSSNWFDPWGQGTLVTVSSTTTPAPRPPTPAPTIASQPLSLRPEACRPAAGGAVHTRGLDFACDIYIWAPLAGTCGVLLLSLVITLYCKRGRKKLLYIFKQPFMRPVQTTQEEDGCSCRFPEEEEGGCELRVKFSRSADAPAYQQGQNQLYNELNLGRREEYDVLDKRRGRDPEMGGKPRRKNPQEGLYNELQKDKMAEAYSEIGMKGERRRGKGHDGLYQGLSTATKDTYDALHMQALPPR | binds
anti-BCMA CAR of recombinant lentivirus LV 9 (SEQ ID NO: 597) (other, Chimeric antigen receptor on the surface of transduced cells; CD8α hinge and TM, CD137, CD3ζ) EVQLLESGGGLVQPGGSLRLSCAASGFTFGSEAMSWVRQAPGKERELVSAISGSGEVTYYADSVKGRFTISRDNSKNTLYLQMNSLRAEDTAVYYCQRLVEAKRHWGQGTQVTVSSTTTPAPRPPTPAPTIASQPLSLRPEACRPAAGGAVHTRGLDFACDIYIWAPLAGTCGVLLLSLVITLYCKRGRKKLLYIFKQPFMRPVQTTQEEDGCSCRFPEEEEGGCELRVKFSRSADAPAYQQGQNQLYNELNLGRREEYDVLDKRRGRDPEMGGKPRRKNPQEGLYNELQKDKMAEAYSEIGMKGERRRGKGHDGLYQGLSTATKDTYDALHMQALPPR | binds
